Data on 2 proteins can be found in ChEMBL document CHEMBL3861952, “Donepezil-like multifunctional agents: Design, synthesis, molecular modeling and biological evaluation” (Eur J Med Chem, 2016).

Substrate in data set [1]: C#CCN(Cc1ccc2cccc(O)c2n1)C(C#N)CCC1CCN(Cc2ccccc2)CC1
Particulars: Homo sapiens; HEK293; 50 nM.
Description: Inhibition of human recombinant BuChE expressed in HEK293 cells using S-butyrylthiocholine iodide as substrate assessed as enzyme Km at 50 nM preincubated for 30 mins followed by substrate addition measured after 30 mins by Ellman's method

Substrate in data set [2]: C#CCN(Cc1ccc2cccc(O)c2n1)C(C#N)CCC1CCN(Cc2ccccc2)CC1
Particulars: Homo sapiens; HEK293; 20 nM.

Substrate in data set [3]: C#CCN(Cc1ccc2cccc(O)c2n1)C(C#N)CCC1CCN(Cc2ccccc2)CC1
The note with it: Homo sapiens; HEK293; 100 nM.

Substrate in data set [4]: C#CCN(Cc1ccc2cccc(O)c2n1)C(C#N)CCC1CCN(Cc2ccccc2)CC1
Particulars: Homo sapiens; HEK293; 200 nM.

Substrate in data set [5]: C#CCN(Cc1ccc2cccc(O)c2n1)C(C#N)CCC1CCN(Cc2ccccc2)CC1
The note with it: Homo sapiens; HEK293; 100 nM. The source holds these as a separate data set.

Substrate in data set [6]: C#CCN(Cc1ccc2cccc(O)c2n1)C(C#N)CCC1CCN(Cc2ccccc2)CC1
The note with it: Homo sapiens; HEK293; 20 nM. The source holds these as a separate data set.

Substrate in data set [7]: C#CCN(Cc1ccc2cccc(O)c2n1)C(C#N)CCC1CCN(Cc2ccccc2)CC1
Particulars: Homo sapiens; HEK293; 200 nM. This is another data set of the same source.

Substrate in data set [8]: C#CCN(Cc1ccc2cccc(O)c2n1)C(C#N)CCC1CCN(Cc2ccccc2)CC1
Particulars: Homo sapiens; HEK293; 50 nM. The source holds these as a separate data set.
Description: Inhibition of human recombinant BuChE expressed in HEK293 cells using S-butyrylthiocholine iodide as substrate assessed as enzyme Vmax at 50 nM preincubated for 30 mins followed by substrate addition measured after 30 mins by Lineweaver-Burk plot analysis

Substrate in data set [9]: C#CCN(Cc1ccc2cccc(O)c2n1)C(C#N)CCC1CCN(Cc2ccccc2)CC1
The note with it: Homo sapiens; HEK293; 100 nM. This is another data set of the same source.

Substrate in data set [10]: C#CCN(Cc1ccc2cccc(O)c2n1)C(C#N)CCC1CCN(Cc2ccccc2)CC1
Particulars: Homo sapiens; HEK293; 100 nM. This is another data set of the same source.

Substrate in data set [11]: C#CCN(Cc1ccc2cccc(O)c2n1)C(C#N)CCC1CCN(Cc2ccccc2)CC1
The note with it: Homo sapiens; HEK293; 20 nM. This is another data set of the same source.

Substrate in data set [12]: C#CCN(Cc1ccc2cccc(O)c2n1)C(C#N)CCC1CCN(Cc2ccccc2)CC1
Particulars: Homo sapiens; HEK293; 50 nM. This is another data set of the same source.
Description: Inhibition of human recombinant AChE expressed in HEK293 cells using acetylthiocholine iodide as substrate assessed as enzyme Km at 50 nM preincubated for 30 mins followed by substrate addition measured after 30 mins by Lineweaver-Burk plot analysis

Substrate in data set [13]: C#CCN(Cc1ccc2cccc(O)c2n1)C(C#N)CCC1CCN(Cc2ccccc2)CC1
The note with it: Homo sapiens; HEK293; 20 nM. The source holds these as a separate data set.

Substrate in data set [14]: C#CCN(Cc1ccc2cccc(O)c2n1)C(C#N)CCC1CCN(Cc2ccccc2)CC1
The note with it: Homo sapiens; HEK293; 200 nM. The source holds these as a separate data set.

Substrate in data set [15]: C#CCN(Cc1ccc2cccc(O)c2n1)C(C#N)CCC1CCN(Cc2ccccc2)CC1
Particulars: Homo sapiens; HEK293; 50 nM. This is another data set of the same source.
Description: Inhibition of human recombinant AChE expressed in HEK293 cells using acetylthiocholine iodide as substrate assessed as enzyme Vmax at 50 nM preincubated for 30 mins followed by substrate addition measured after 30 mins by Lineweaver-Burk plot analysis

Substrate in data set [16]: C#CCN(Cc1ccc2cccc(O)c2n1)C(C#N)CCC1CCN(Cc2ccccc2)CC1
The note with it: Homo sapiens; HEK293; 200 nM. The source holds these as a separate data set.

B1: Cholinesterase (Homo sapiens), P06276 (protein)
chain: MHSKVTIICIRFLFWFLLLCMLIGKSHTEDDIIIATKNGKVRGMNLTVFGGTVTAFLGIPYAQPPLGRLRFKKPQSLTKWSDIWNATKYANSCCQNIDQSFPGFHGSEMWNPNTDLSEDCLYLNVWIPAPKPKNATVLIWIYGGGFQTGTSSLHVYDGKFLARVERVIVVSMNYRVGALGFLALPGNPEAPGNMGLFDQQLALQWVQKNIAAFGGNPKSVTLFGESAGAASVSLHLLSPGSHSLFTRAILQSGSFNAPWAVTSLYEARNRTLNLAKLTGCSRENETEIIKCLRNKDPQEILLNEAFVVPYGTPLSVNFGPTVDGDFLTDMPDILLELGQFKKTQILVGVNKDEGTAFLVYGAPGFSKDNNSIITRKEFQEGLKIFFPGVSEFGKESILFHYTDWVDDQRPENYREALGDVVGDYNFICPALEFTKKFSEWGNNAFFYYFEHRSSKLPWPEWMGVMHGYEIEFVFGLPLERRDNYTKAEEILSRSIVKRWANFAKYGNPNETQNNSTSWPVFKSTEQKYLTLNTESTRIMTKLRAQQCRFWTSFFPKVLEMTGNIDEAEWEWKAGFHRWNNYMMDWKNQFNDYTSKKESCVGL
With B1, the Km (commonly the concentration of substrate that gives half-maximal velocity) in data set [1] stood at 289 µM; in data set [2], 249 µM; in [5], 456 µM; in [7], 1240 µM. The Vmax turned out to be 87 mAU/min in data set [3], 83 mAU/min in data set [4], 108 mAU/min in data set [6] and 101 mAU/min in data set [8].

B2: Acetylcholinesterase (Homo sapiens), P22303 (protein)
chain: MRPPQCLLHTPSLASPLLLLLLWLLGGGVGAEGREDAELLVTVRGGRLRGIRLKTPGGPVSAFLGIPFAEPPMGPRRFLPPEPKQPWSGVVDATTFQSVCYQYVDTLYPGFEGTEMWNPNRELSEDCLYLNVWTPYPRPTSPTPVLVWIYGGGFYSGASSLDVYDGRFLVQAERTVLVSMNYRVGAFGFLALPGSREAPGNVGLLDQRLALQWVQENVAAFGGDPTSVTLFGESAGAASVGMHLLSPPSRGLFHRAVLQSGAPNGPWATVGMGEARRRATQLAHLVGCPPGGTGGNDTELVACLRTRPAQVLVNHEWHVLPQESVFRFSFVPVVDGDFLSDTPEALINAGDFHGLQVLVGVVKDEGSYFLVYGAPGFSKDNESLISRAEFLAGVRVGVPQVSDLAAEAVVLHYTDWLHPEDPARLREALSDVVGDHNVVCPVAQLAGRLAAQGARVYAYVFEHRASTLSWPLWMGVPHGYEIEFIFGIPLDPSRNYTAEEKIFAQRLMRYWANFARTGDPNEPRDPKAPQWPPYTAGAQQYVSLDLRPLEVRRGLRAQACAFWNRFLPKLLSATDTLDEAERQWKAEFHRWSSYMVHWKNQFDHYSKQDRCSDL
B2: the Km in data set [9] was found to be 955 µM; in [11], 368 µM; in data set [12], 622 µM; in data set [16], 936 µM. Also, the Vmax in data set [10] was found to be 10.2 mAU/min; in data set [13], 17.7 mAU/min; in [14], 7.3 mAU/min; in data set [15], 13 mAU/min.
